Experimental data as given in US20260232732A1 (FUNDACI INSTITUT DE RECERCA CONTRA LA LEUC MIA JOSEP …, published 2026).
Blank lines part the entries; values can stand above or below the binder they belong to. Where no end group is shown, it is not given here. The star is where a group is joined. Biotin = O=C1N[C@H]2[C@H](CS[C@H]2CCCCC(=O)*)N1

Legend:
[1] = biological target: T1, biotin-peptide TSSMEDYVNF (human); test: ELISA biotin-peptide; scFv 2.5 ug/mL; repII
T1 peptide: Biotin-TSSMEDYVNF
Description: (§1) The peptides were synthesized naked or with a N-terminal Biotin modification with a purity of >98%. All four scFvs were verified by ELISA that can be detected with anti-His antibodies. ELISA was performed for scFv-peptide binding validation. Briefly, naked peptides were coated (50 μg/mL) in 0.58M carbonate-bicarbonate buffer pH9.5, 100 μL/well, 4° C. O/N. Then after blocking (3% BSA-PBS, 300 μL/well 37° C. 1.5 h) and washing (PBS+Tween-20 0.05% v/v (0.05% PBST), wells were incubated with each purified scFv antibody at concentration of 1 μg/mL in PBS at 37° C. 1 h. After washing (0.05% PBST), wells were incubated with secondary antibodies (goat anti-His IgG-HRP) in PBS, 37° C., 30 min. After washing, and incubation with TMB substrate, reactions were stopped with 2M HCl and reading was quantified at OD450.
(§2) ELISA with biotin-conjugated peptides (5 μg/mL) was performed very similar to described above with minor modifications.
(§3) A full curve ELISA was performed for each positive scFv/biotin-peptide pair in order to confirm previous results. Tables 15-17 show ELISA results of the dose-dependent full curve for each positive peptide with scFv “CCR9_HUM”, “Comp-2” and “Comp-3”, respectively.

[2] = biological target: T2, biotin-peptide SMEDYVNFNF (human); test: ELISA biotin-peptide; scFv 2.5 ug/mL; repII
T2 peptide: Biotin-SMEDYVNFNF
Description: as §1, §2, §3

[3] = biological target: T3, biotin-peptide SSMEDYVNFN (human); test: ELISA biotin-peptide; scFv 2.5 ug/mL; repII
T3 peptide: Biotin-SSMEDYVNFN
Description: as §1, §2, §3

[4] = biological target: T4, biotin-peptide MEDYVNFNFT (human); test: ELISA biotin-peptide; scFv 2.5 ug/mL; repII
T4 peptide: Biotin-MEDYVNFNFT
Description: as §1, §2, §3

[5] = biological target: T5, Peptide 1-BSA (MADDYGSEST-C conjugated to BSA) (human); test: ELISA; Ab 0.01563 ug/mL; repII
T5 peptide: MADDYGSESTC(BSA)
Description: (§4) In brief, plates with each non-conjugated peptide (50 μg/mL) or BSA-conjugated peptide (5 μg/mL) were coated in 0.58M carbonate-bicarbonate buffer pH9.5, 100 μL/well, at 4° C. […] After washing, wells were incubated with the 3, 3′,5,5′-Tetramethylbenzidine (TMB) HRP substrate and reactions were stopped with 2M HCl and OD450 was recorded.

[6] = biological target: T6, antigen peptide-BSA (immunisation peptide #1 MADDYGSESTSSMEDYVNFNF-C conjugated to BSA) (human, extra C-terminal Cys conjugated to BSA); test: ELISA; Ab 0.01563 ug/mL; repII
T6 construct: also called Positive control antigen peptide-BSA; MADDY peptide
T6 peptide: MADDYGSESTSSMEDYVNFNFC
Description: as §4

[7] = biological target: T7, Peptide 3, non-conjugated (SSMEDYVNFN-C) (human); test: ELISA; Ab 0.01563 ug/mL; repII
T7 construct: With the extra C-terminal Cys
T7 peptide: SSMEDYVNFNC
Description: as §4

[8] = biological target: T8, Peptide 4, non-conjugated (SMEDYVNFNF-C) (human); test: ELISA; Ab 0.01563 ug/mL; repII
T8 construct: With the extra C-terminal Cys
T8 peptide: SMEDYVNFNFC
Description: as §4

[9] = biological target: T9, Peptide 2-BSA (GSESTSSMED-C conjugated to BSA) (human); test: ELISA; Ab 0.01563 ug/mL; repII
T9 peptide: GSESTSSMEDC(BSA)
Description: as §4

[10] = biological target: T10, Peptide 2, non-conjugated (GSESTSSMED-C) (human); test: ELISA; Ab 0.01563 ug/mL; repII
T10 construct: With the extra C-terminal Cys
T10 peptide: GSESTSSMEDC
Description: as §4

[11] = biological target: T11, Peptide 1, non-conjugated (MADDYGSEST-C) (human); test: ELISA; Ab 0.01563 ug/mL; repII
T11 construct: With the extra C-terminal Cys
T11 peptide: MADDYGSESTC
Description: as §4

[12] = biological target: T12, Peptide 4-BSA (SMEDYVNFNF-C conjugated to BSA) (human); test: ELISA; Ab 0.01563 ug/mL; repII
T12 peptide: SMEDYVNFNFC(BSA)
Description: as §4

[13] = biological target: T13, Peptide 3-BSA (SSMEDYVNFN-C conjugated to BSA) (human); test: ELISA; Ab 0.01563 ug/mL; repII
T13 peptide: SSMEDYVNFNC(BSA)
Description: as §4

[14] = biological target: T14, BSA (negative control coating) (bovine, UniProt P02769 25-607); test: ELISA; Ab 0.01563 ug/mL; repII
T14 construct: also called Negative control BSA
Description: as §4

[15] = biological target: T5, Peptide 1-BSA (MADDYGSEST-C conjugated …); test: ELISA; Ab 0.125 ug/mL; repII
Description: as §4

[16] = biological target: T6, antigen peptide-BSA (immunisation …); test: ELISA; Ab 0.125 ug/mL; repII
Description: as §4

[17] = biological target: T7, Peptide 3, non-conjugated (SSMEDYVNFN-C); test: ELISA; Ab 0.125 ug/mL; repII
Description: as §4

[18] = biological target: T8, Peptide 4, non-conjugated (SMEDYVNFNF-C); test: ELISA; Ab 0.125 ug/mL; repII
Description: as §4

[19] = biological target: T9, Peptide 2-BSA (GSESTSSMED-C conjugated …); test: ELISA; Ab 0.125 ug/mL; repII
Description: as §4

[20] = biological target: T10, Peptide 2, non-conjugated (GSESTSSMED-C); test: ELISA; Ab 0.125 ug/mL; repII
Description: as §4

[21] = biological target: T11, Peptide 1, non-conjugated (MADDYGSEST-C); test: ELISA; Ab 0.125 ug/mL; repII
Description: as §4

[22] = biological target: T12, Peptide 4-BSA (SMEDYVNFNF-C conjugated …); test: ELISA; Ab 0.125 ug/mL; repII
Description: as §4

[23] = biological target: T13, Peptide 3-BSA (SSMEDYVNFN-C conjugated …); test: ELISA; Ab 0.125 ug/mL; repII
Description: as §4

[24] = biological target: T14, BSA (negative control coating); test: ELISA; Ab 0.125 ug/mL; repII
Description: as §4

T14 sequence (P02769 25-607 limits assumed): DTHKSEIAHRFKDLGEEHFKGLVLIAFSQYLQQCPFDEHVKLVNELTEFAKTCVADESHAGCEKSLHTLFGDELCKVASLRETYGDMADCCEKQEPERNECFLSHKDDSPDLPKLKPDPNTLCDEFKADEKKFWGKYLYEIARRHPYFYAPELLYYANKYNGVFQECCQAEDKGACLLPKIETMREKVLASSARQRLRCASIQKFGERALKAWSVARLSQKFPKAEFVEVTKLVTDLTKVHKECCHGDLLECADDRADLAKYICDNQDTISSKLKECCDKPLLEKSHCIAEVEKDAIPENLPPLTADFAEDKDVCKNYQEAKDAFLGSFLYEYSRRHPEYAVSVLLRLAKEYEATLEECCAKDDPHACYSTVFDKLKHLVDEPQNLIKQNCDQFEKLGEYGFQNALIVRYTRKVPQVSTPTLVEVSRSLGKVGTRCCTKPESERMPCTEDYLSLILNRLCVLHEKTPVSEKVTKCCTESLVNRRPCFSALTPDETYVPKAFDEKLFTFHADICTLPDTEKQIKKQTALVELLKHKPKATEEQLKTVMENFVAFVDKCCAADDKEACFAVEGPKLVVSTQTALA

- OD450 [1]: 1.4 OD
- OD450 [2]: 1.77 OD
- OD450 [3]: 1.78 OD
- OD450 [4]: 1.64 OD
B1: CCR9_HUM2 scFv (humanized anti-CCR9 scFv, SEQ ID NO: 17 with C-terminal 6xHis tag) (scFv)
scFv: QVQLVQSGAEVKKPGASVKVSCTASGYSFTDYIIYWVKQAHGQSLEWMGYIDPNNYNTRYSQKFQGKVTITVDKSSTSAYMELNSLTSDDTAVYYCARDVYWGQGTTVTVSSGGGGSGGGGSGGGGSGGGGSDVVMTQTPLSLSVTPGQPASISCRSSQSLVHSNGKTYLQWYLQKPGQSPKLLIYKVSNRFSGVPDRFSGSGSGTDFTLKISRVEAEDVGVYFCAQSTHVWTFGGGTKVEIKRAHHHHHH

- OD450 [5]: 0.01 OD
- OD450 [6]: 1.21 OD
- OD450 [7]: 1.4 OD
- OD450 [8]: 0.46 OD
- OD450 [9]: 0.01 OD
- OD450 [10]: 0.01 OD
- OD450 [11]: 0.01 OD
- OD450 [12]: 1.03 OD
- OD450 [13]: 1.34 OD
- OD450 [14]: 0.01 OD
- OD450 [15]: 0.01 OD
- OD450 [16]: 2.31 OD
- OD450 [17]: 1.77 OD
- OD450 [18]: 1.84 OD
- OD450 [19]: 0.01 OD
- OD450 [20]: 0.01 OD
- OD450 [21]: 0.02 OD
- OD450 [22]: 2.39 OD
- OD450 [23]: 1.97 OD
- OD450 [24]: 0.01 OD
B2: anti-CCR9 antibody clone 115 (murine, from hybridoma #115) (antibody, V domains shown)
VH: QVQLKQSGPELVKPGTSVRVSCTASGYSFTDYIIYWVKQSHGRSLEWIGYIDPNNYNTRYSQKFKGKATLTVDKSSTSAFMHLNSLTSDDSAVYYCARDVYWGQGTTLTVSS
VL: DVVMTQTPLSLTVSLGDQASISCRSSQSLVHSNGKTYLQWYLQKPGQSPKLLIYKVSNRFSGVPDRFSGSGSGTDFTLKISRVEAEDLGVYFCAQSTHVWTFGGGTKLEIKR
notes: Mouse IgG1
